Measurements: a protein production outcome set (Wang et al. 2014)

Assay: label from the status in PepcDB records
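Also: failed if final PepcDB status was selected cloned or expressed and not failed if soluble or beyond.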

| Sequence | protein production |
| --- | --- |
| MRGLRSESKVLELVVIPADHSIAELLKMKENEPVNKLVRVRYAEGEPLQYHTSYIPWKAAPGLAQEECTGSLFELLRTKYNIEISRGTESIEPILTDETISGHLLTNVGAPAFLSESLTYDKNEEVVEYAQIITRGDRTKFTVEQSYHS | failed |
| MRGTAAIEGPGSQSMITRRGFLRFIGGSFLTAAALGAYAVGIEPMLLTHVKRYALTPPHWPDGLKLRVVALADIHACRPWMTQERIASLVEDANALQPDLIVLLGDYIAGMPLVTGPVTPSQWASALSGLKAPLGVLSILGNHDWWSDGFAQRAGAGPIIARKALEKVGIPVLENDVVRLEKDGQSVWIAGLADQLALLPARKGDDCKGLDDLDGTLAKVGDTAPIILLAHEPDIFPTVPSRVSLTLSGHTHGGQVRLFGYSPVVPSRFGNRYAYGHVVEKDRNLIVSGGLGFSIMPVRFGVRPEILQIDLG | failed |
| MRGWILYKETATQLKPEWYEIERLLAAAKADNIELEVYAPDEFDLTVTREDNKSILLNGQPVELPDFIIPRMGSGTTYFALAIIRHLERLGVYCLNPSKAIEIVKDKLFSQQLLAEKNLPTPKTMLVKFPVDIDLVERHLGFPVVIKTLSGSQGSGVFLSHKAREFDDLMQLIEATNKNANIILQEFIANSHGRDLRVFTIGGRVAGCYERRGQEDSFKANVSAGGSARPFDITPEIEWLATQTANILDLDVAGIDLLFDNGHYKICEANSSPGFEGLESCLNVDIAAQILHFIRIRLGMFNKDEKNSDPQLTHAGPALANNVTSSKAAE | failed |
| MRGWTAVTDTAGTPSGDGPEQAAVPGPGGGASPIGAGLVRRRRRWLRHTAFGVAALVLGAAGAGWAVYEKLNSNITADEAAAAELARYEKERPTSLVRDAQNILLIGSDSRSGDGNSQYGRDTGTERSDTTILLHLPANRHSATAVSLPRDLMVDIPSCRRPDGTRTAPTFAMFNQAFETGGSACTIRTAEKLTNVRIDHHMVVDFSGFKEMVDAVDGVEVCLKDPIDDKDAKLRLPAGKQLLDGEQALGYVRARKSIGNGSDTDRMDRQQRFLGALVNKVQGNDVLLNPVKLYPVLDAATSSLTTDPDLASLRGLYELVRGMRNIPPERVQFLTVPRTSYVNNANRDQLVEPDAEKLFARLRADAPLEVAKDYAGYDEQSGGDGTLSGKPLDTPAGTPDPTPTFRGNTAAEDGCE | failed |
| MRHDDARGRPGTRIAWRATFAAKRGEALRADHLRYRPQAGSPGALHCFVLDCSASMLTAERLARAKGLVVALFDSLARERADAALVCFGGNSAGVRFGPAVPRWWNERWLAPVGAGGGTPLARGIGAATRLLARAARRRPRQQRWLWLLSDGRTTEAPARPAFADRIVIVDFDDAAVRLGRCERLAHAWGAALVTPQALERGGG | failed |
| MRHITTHDAPATGLRSIADTSWHVRGACHGMDIEDADAVFFPGPRDHEEIAEAKELCGWCPVRRACLDFALENVLKEGVWGGLTEAERRPL | failed |
| MRIDTQEQLVTLLNALFEKVGINLEQVSKLDNYGVMFSVPGTMKPLIATLKTVTTPTNWNNETNLGHYKSADENWLLCLKPAPHSVFCIATVCSLHEKHLEQYIETSEKKQDRRIAAEHGDPEAQYYTAQDCEDKTEALFWYRKAGEQNHYWALYQIALMYEAGEGGLEKDFAQAILWRGKAAEQGSDAAARDLAEMYEEGTADIPQDLTLAIFWYERWLELSPVMRRMIKPKIKSLKAALSQRMNE | failed |
| MRIEAAELRILELPLKFRFETSFGVQTKRTILLLRLFGEGLEGLGEGVMERLPLYREETVAGARYLLEEVFLPRVLGRDLPNPEALREALAPFRGNPMAKAVLEMAFFDLWAKALGRPLWQVLGGVRQAVEVGVSLGIQPSVEDTLRVVERHLEEGYRRIKLKIKPGWDYEVLKAVREAFPEATLTADANSAYSLANLAQLKRLDELRLDYIEQPLAYDDLLDHAKLQRELSTPICLDESLTGAEKARKAIELGAGRVFNVKPARLGGHGESLRVHALAESAGIPLWMGGMLEAGVGRAHNLHLATLPGFTKPGDVSSASRYWEEDIVEEALEAKDGLMPVPEGVGIGVHLKLPFVERVTLWQRYMSAS | not failed |
| MRIEVVNVSHIFHRGTPLEKKALENVSLVINEGECLLVAGNTGSGKSTLLQIVAGLIEPTSGDVLYDGERKKGYEIRRNIGIAFQYPEDQFFAERVFDEVAFAVKNFYPDRDPVPLVKKAMEFVGLDFDSFKDRVPFFLSGGEKRRVAIASVIVHEPDILILDEPLVGLDREGKTDLLRIVEKWKTLGKTVILISHDIETVINHVDRVVVLEKGKKVFDGTRMEFLEKYDPRFFTSKMLVMRRLVLKGEDPFSMSDDELLERVCNS | not failed |
| MRIFIAFEGSFEAFDVAAHTSVGAIKQMVKDYFHIPLSEDKQGRWYLELTYAGAALKNNWSLSDVGISFCSTLKCFVKKEDKPTLYVFNAVTQETMAIKENMSILDRKVSDLRMLVTLSCGFPVSVYCLRTPAGLEMYDCNTLKDYQTDIGTTLRLDVWDGWKEFLMGCLLGQKPKVQRYLSKEGPVLKYQKRVALYIAAFHGHTELTEWALKQGAQPHEAVGVHPCRAWCHEALHTDVSNCPIHAAAEAGQLLILKAFVNFSVLCLECKNAAGQSPLAIASKHQHKDCVLYLLSKIWSTVSFLKLSVPMRIYIKIKQWILRAQTRRCHKSQPSRARVSGAKVGDTVMVDGFTKPKMTSKSWYKAEDKSWHTAQSKLPPCKQQPSRKPIGSLPMSQHDTKKQIFTFPSLVDAKNFSEVQSYQQENQKKIAAPARKEKNIKNPYLPQVPLPPVSRVHYAHPQFYCTPPSGDCLLRSLFKSFSEHSGRTPRENAIYCLAVASAFKEKRWLQQLEIARVLAKRSISNLTVKGGPAKCENYPESVL | failed |
| MRIGMRLLLGYFLLVAVAAWFVLAIFVKEVKPGVRRATEGTLIDTATLLAELARPDLLSGDPTHGQLAQAFNQLQHRPFRANIGGINKVRNEYHVYMTDAHGKVLFDSANKAVGQDYSRWNDVWLTLRGQYGARSTLQNPADPESSVMYVAAPIMGGSRLIGVLSVGKPNAAMAPVIKRSERRILWASAILLGIALVIGAGMVWWINRSIARLTRYADSVTDNKPVPLPDLGSSELRKLAQALESMRVKLEGKNYIEQYVYALTHELKSPLAAIRGAAEILREGPPPEVVARFTDNILTQNARMQALVETLLRQARLENRQEVVLTAVDVAALFRRVSEARTVQLAEKNITLHVMPTEVNVAAEPALLDQALGNLLDNAIDFTPESGCITLSAEVDQEHVTLKVLDTGSGIPDYALSRIFERFYSLPRANGQKSSGLGLAFVSEVARLFNGEVTLRNVQEGGVLASLRLHRHFT | failed |
| MRIHDIDPDNRPRERFLRSGKESLSPAELLALILRSGTAGLNIIDTCNKLISEHGLERLADLSIQELQKTPGIGEAKAMQIAAIFELQRRLHFARNMNLKVKGARDVFEYMKGRIPDETKEHLFVLFLSTKNQILRHETITIGTLTASLIHPREIFKAAIRESAHSIILVHNHPSGDVQPSNADKQVTSILKKAGDLLQIELLDHVIVGNNDWFSFRDHALL | failed |
| MRIIKFPEQISEDIIHYTFLDDIISYNCEKCRGSCCHVNNSLLLDAKTASFLKRTYLKDFIVSDDSVSLLSCGKKCWFHSELGCTINDLGLNKPLTCELYPFHIKKIQNFYIVSFTPCPTFQLNLGEGQRYKDIEDVVLRYIKTGVPVFSPSLHVSEERLKYEIEYQNNFKNTLSEYYRTKTADGTTEFKEYEKWYIYYLDFRWGSIPLSYTSSQANQFWNLYKRVCEDVYKKISYIRTDNIYFIIANQFNKTISKHFQLNFIDKELEHHHHHH | not failed |
| MRIKNKCLVLLIPLGISIMFDIRVKAFQPVSHYVVIEQAESKMSNDSIIRKAIEAYPNVAAWGSVGPDLGYMQVGELGDYSPWGDRYHYYKVGTYAAKQLKNALETRDMKKIAFAAGWISHVTGDLACHGIYVNPECGVYLDNKDGRKQHKHMEAEAEPYAWVNIAGHSINDYNSNNMSNNVFKGTDDIPFDLMNETSKEVYGQSPSTAEEKLWASTLLTGLRTGVGYSYTDYNESKQFLSINSREQRLNASFSQGINQCYKLLTYSENGDYSKFTDRWNLDVGKSSSPISSLTTIISTGTNLGSGTDDDIYFGIHLNNGQKKEWLLDKETYNDFENGATDEYYLYINDMDFLPTMVDKVWVRKNSTGSFAGNWFFKALRIDANGNDVLSVSPNEWITDSNSQAEFNSDWSSVTNLTDPEF | failed |
| MRILLVEDDELIGELLVKSLTSQHYTVDFAKDGQEGWDFAELYTYDLILLDLILPKLDGISFCRQLRASGNQTPILLLTSQDTSITKVTGLDAGADDYVAKPFDFQELLARIRALLRRGGSALPPLLEWNNLRLDPSTCEVACDGKLLHLTPKEYGLLELFLRNSHRIFSCSALIDQLWSFEEPPTEDTVRSHIKGLRQKLKAAGVVEDPIDTVYGIGYRLKPVQPGREEELNTEKVVAAIANPVENEVRKVWEDVVEKIEQRVAVIEQASHKLLQNKVSEEILSKAKVEAHKLAGSLGMFGSDEGSQIAQEIESLLDNGKKLKASGGKHLGQVVEALHQELENLKSGYKTELSVVETKADDRPLVLVIDQDQELVRESRSQGSEAIAPGQLTDARVMIVDDDPQILTTLQTLLSAWGIKVYTLPHPQGFLAARLGNLAEIDTLTLVANRRKSTQELNHYLQWCHTHQQTLSFAVVKLDGLKQINYNYGHEIGDRVLSQLGELLRQMFHSQDVVGRWGGTEFILGMAGITKGEGVRRLGELLKTFRQIEFINTSNQSFHATLSAAVVEYPQDGDKLEVLYQAADIVLHQSKATGRNRVLSS | failed |
| MRILSIHLKNIKSHRDTELTFSAGINVLSGPNGVGKSTVFEAIGYALFGVDARDFVSNVDRFLSIGTKKGEIAVAFCTDAGETWRVTRTVGTPAKWLLAREQGGAFEVEEHARIEETEARIAELLGLDNGRPLAEQFKLVIGPFQNEFLGPFVIKQPTKRQEAFDEILGIDAWRKTYKSTSSLLSAVQEKIKIIAVEIEAKEAQVAVLPEREDELAKIKTDAEALRKVLSSQADALRDVEKQLVELDDQEKGIAALQAEIQILVNRITDGEGKIKDQGQRVGEAEKAGGVLEQTRAGKEAFERAESRLAELVSKDKQRREVEKDVTRLENETQRLTQAVEHEQKEIEGEGRRLREEEDALAKARNELEPDRKVVDTAGRLPGLRDEINRVRSEKGLLEGRRIGLLEGQEKLGEGTCPFFKEPCRNVAGTTPKDVFTTRIAELDRKMQALTEALGKLSVEVADAEAAEKQLAALTVRSQELHKQTMGLVERRARNEKRVATLQTLSTQQIEAATRAKARRDDLQVFAGLDHEIERATAERGRFQADRDAYHAHEKDALDLDNRRQTLEKMLRLLDELQKQLIGKKEELIRLQETYKPGQHKEARDQKDRLVAQVASLGQQIENLEKDRKRLEDEIGKLKLLKDEIGRKQAERNSFEQKEKLVKFLRNQVFKNVSAQLSERFREEISLRADRIYRTIAEADEELVWSENYQIVLRDMTDGVVRERSDDQLSGGQTMSAVVALRLALLQTIGARIAFFDEPTSNLDASRRENLATAFRAIDVGREEVTEHWYDQLFLISHDVAFTEITDQMIQLGE | failed |
| MRIQMATKSSKKYKGVYCDNKGKIFYQIDLGIDPVTGKRVQKKARKNQYGKTFETMKEAYDELVRIKYEFANKVHLENYNMTFENYMNTIYLRAYKQKVQSVTYKTALPHHKLFIQYFGSKPLKAITPRDCEAFRLHIIENYSENYAKNLWSRFKACMGYAERLGYISDMPCKALDNPRGKHPETPFWTYAEFQTFIKSFDLHDYEELQRFTAIWLYYMTGVRVSEGLSLCWEDIDFDKKFLKVHTTLEKDENGNWYRKDQTKTPAGERLIELDDITIEVLQVWRKNQFANQDTDFIISRFGDPFCKSTICRIIKRKAQQVGVPVITGKGLRHSHASYLINVLKKDILYVARRMGHADKSTTLNTYSHWFNALDKTVSEEITQNIKSAGLDSILCQNSCQTSN | failed |
| MRIRLFAFCLLLGGCQSQLPPLPDWQSPEGRDDPQTGRIVELRSGVTLSPQQLVARLAAAPRVIVGEKHDNPDHHAVELWLAQALGEYRAQGSLLLEMLDPGQQPRVDAVRAQLGNGKPVANLEEALDWQKGWDWTQYGPLVSWAVAQPAPLLAANLQRSEIMRIYRERPPLPGTASRRDSVRLPLLAQIRESHCGMLPDDQLPAMLAVQQQRDRRMAERLRDAPRPAMLVAGSFHARRDLGVPVHLRDLGAEKGTQVLMLVEAGQAVTTREADYAWYTPAQPDKDYCAEMKKARLEHHHHHH | failed |
